Test results: US20210395340A1 (KINDRED BIOSCIENCES, published 2021)

Tests used:
[1] = molecular target: T1, canine IL13 with C-terminal poly-His tag (produced in 293 cells) (canine, UniProt Q9N0W9 19-131); test: BLI (Octet)
T1 sequence: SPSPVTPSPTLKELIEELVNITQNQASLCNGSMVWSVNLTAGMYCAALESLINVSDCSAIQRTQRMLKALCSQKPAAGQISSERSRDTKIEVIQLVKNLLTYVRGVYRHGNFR

[2] = molecular target: T2, canine IL4 (Sino Biological Inc, Cat #70021-DNAE-5) (canine, UniProt O77762 25-132, limits assumed); test: cell-based or functional assay
T2 sequence (looked up): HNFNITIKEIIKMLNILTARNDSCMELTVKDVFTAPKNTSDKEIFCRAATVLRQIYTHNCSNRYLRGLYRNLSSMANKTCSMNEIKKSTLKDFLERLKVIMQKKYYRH

B1: canine IL13RECD-IL4RECD-IgGB Fc (Fc fusion)
chain: TETQPPVTNLSVSVENLCTVIWTWDPPEGASPNCTLRYFSHFDNKQDKKIAPETHRSKEVPLNERICLQVGSQCSTNESDNPSILVEKCTPPPEGDPESAVTELQCVWHNLSYMKCTWLPGRNTSPDTNYTLYYWHSSLGKILQCEDIYREGQHIGCSFALTNLKDSSFEQHSVQIVVKDNAGKIRPSFNIVPLTSHVKPDPPHIKRLFFQNGNLYVQWKNPQNFYSRCLSYQVEVNNSQTETNDIFYVEEAKCQNSEFEGNLEGTICFMVPGVLPDTLNTVRIRVRTNKLCYEDDKLWSNWSQAMSIGENTDPTGGGSGSGSVKVLHEPSCFSDYISTSVCQWKMDHPTNCSAELRLSYQLDFMGSENHTCVPENREDSVCVCSMPIDDAVEADVYQLDLWAGQQLLWSGSFQPSKHVKPRTPGNLTVHPNISHTWLLMWTNPYPTENHLHSELTYMVNVSNDNDPEDFKVYNVTYMGPTLRLAASTLKSGASYSARVRAWAQTYNSTWSDWSPSTTWLNYYEPKRENGRVPRPPDCPKCPAPEMLGGPSVFIFPPKPKDTLLIARTPEVTCVVVDLDPEDPEVQISWFVDGKQMQTAKTQPREEQFNGTYRVVSVLPIGHQDWLKGKQFTCKVNNKALPSPIERTISKARGQAHQPSVYVLPPSREELSKNTVSLTCLIKDFFPPDIDVEWQSNGQQEPESKYRTTPPQLDEDGSYFLYSKLSVDKSRWQRGDTFICAVMHEALHNHYTQESLSHSPGK
notes: also called canine IL13RECD-IL4RECD-Fc; IL13R ECD/IL4R ECD contiguous polypeptide
Q: Does B1 bind [1]?
A: binds

B2: canine IL4RECD-IL13RECD-IgGB Fc (Fc fusion)
chain: SGSVKVLHEPSCFSDYISTSVCQWKMDHPTNCSAELRLSYQLDFMGSENHTCVPENREDSVCVCSMPIDDAVEADVYQLDLWAGQQLLWSGSFQPSKHVKPRTPGNLTVHPNISHTWLLMWTNPYPTENHLHSELTYMVNVSNDNDPEDFKVYNVTYMGPTLRLAASTLKSGASYSARVRAWAQTYNSTWSDWSPSTTWLNYYEPGGGSGTETQPPVTNLSVSVENLCTVIWTWDPPEGASPNCTLRYFSHFDNKQDKKIAPETHRSKEVPLNERICLQVGSQCSTNESDNPSILVEKCTPPPEGDPESAVTELQCVWHNLSYMKCTWLPGRNTSPDTNYTLYYWHSSLGKILQCEDIYREGQHIGCSFALTNLKDSSFEQHSVQIVVKDNAGKIRPSFNIVPLTSHVKPDPPHIKRLFFQNGNLYVQWKNPQNFYSRCLSYQVEVNNSQTETNDIFYVEEAKCQNSEFEGNLEGTICFMVPGVLPDTLNTVRIRVRTNKLCYEDDKLWSNWSQAMSIGENTDPTPKRENGRVPRPPDCPKCPAPEMLGGPSVFIFPPKPKDTLLIARTPEVTCVVVDLDPEDPEVQISWFVDGKQMQTAKTQPREEQFNGTYRVVSVLPIGHQDWLKGKQFTCKVNNKALPSPIERTISKARGQAHQPSVYVLPPSREELSKNTVSLTCLIKDFFPPDIDVEWQSNGQQEPESKYRTTPPQLDEDGSYFLYSKLSVDKSRWQRGDTFICAVMHEALHNHYTQESLSHSPGK
notes: The IL4R ECD precedes the IL13R ECD, followed by canine IgG-B Fc; also called canine IL4RECD-IL13RECD-Fc; SINK
Q: Does B2 bind [1]?
A: binds

Q: And the “TF1 cell proliferation assay (CellTiter-Glo luminescence), IC50” value [2]?
A: 2 nM
